Measured values from patent publication US20250002610A1 (Genmab, published 2025).

Columns and labels:
[1] = target: T1, human DR4 (Death Receptor 4), cell surface expressed on human tumor cell lines (human, UniProt O00220 24-468); experiment: flow cytometry, PANC-1 cells, average ± SEM
T1 construct: also called TNFRSF10A; TRAIL-R1
T1 sequence: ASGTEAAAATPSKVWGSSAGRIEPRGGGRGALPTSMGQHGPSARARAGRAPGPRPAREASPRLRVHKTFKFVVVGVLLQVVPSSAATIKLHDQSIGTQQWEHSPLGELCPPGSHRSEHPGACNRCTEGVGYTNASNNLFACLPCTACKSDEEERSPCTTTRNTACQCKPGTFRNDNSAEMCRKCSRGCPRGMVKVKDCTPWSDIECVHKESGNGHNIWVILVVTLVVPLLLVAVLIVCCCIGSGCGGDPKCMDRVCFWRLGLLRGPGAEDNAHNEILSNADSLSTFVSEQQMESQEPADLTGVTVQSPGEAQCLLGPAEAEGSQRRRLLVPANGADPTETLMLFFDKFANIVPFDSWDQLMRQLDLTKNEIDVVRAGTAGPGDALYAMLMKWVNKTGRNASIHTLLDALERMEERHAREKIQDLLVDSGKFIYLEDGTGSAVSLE

[2] = target: T2, human FAPα (Fibroblast activation protein alpha), cell surface expressed (human, UniProt Q12884 1-760); experiment: flow cytometry, Expi293F cells expressing human FAPα, n = 1
T2 construct: Endogenous on human lung fibroblasts and CAFs
T2 sequence: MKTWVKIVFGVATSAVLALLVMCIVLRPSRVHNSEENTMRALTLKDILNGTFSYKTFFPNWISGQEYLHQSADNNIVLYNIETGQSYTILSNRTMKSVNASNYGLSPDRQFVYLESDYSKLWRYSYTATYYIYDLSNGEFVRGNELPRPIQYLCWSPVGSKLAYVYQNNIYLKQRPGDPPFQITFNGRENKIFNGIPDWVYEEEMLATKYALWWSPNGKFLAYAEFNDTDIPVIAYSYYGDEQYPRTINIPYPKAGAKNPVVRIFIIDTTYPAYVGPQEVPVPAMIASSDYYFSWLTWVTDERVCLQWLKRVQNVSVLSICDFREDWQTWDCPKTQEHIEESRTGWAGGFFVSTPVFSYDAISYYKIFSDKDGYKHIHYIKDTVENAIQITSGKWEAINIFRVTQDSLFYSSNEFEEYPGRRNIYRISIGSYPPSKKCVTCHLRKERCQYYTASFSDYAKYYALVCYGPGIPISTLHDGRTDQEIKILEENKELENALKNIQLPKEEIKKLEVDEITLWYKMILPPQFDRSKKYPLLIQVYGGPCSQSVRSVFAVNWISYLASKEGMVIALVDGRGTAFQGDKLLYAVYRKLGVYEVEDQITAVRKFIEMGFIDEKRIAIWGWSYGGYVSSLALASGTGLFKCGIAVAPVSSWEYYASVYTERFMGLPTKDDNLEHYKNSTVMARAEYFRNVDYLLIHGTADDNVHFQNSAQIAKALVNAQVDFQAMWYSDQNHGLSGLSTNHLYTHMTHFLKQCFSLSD
Experimental: (§1) Binding of BisG1-FAPα-FERL/DR4-FERR, BisG1-FAPα-FEAL/b12-FEAR and IgG1-FAPα-FERL to FAPα of species commonly used for nonclinical toxicology studies was assessed by flow cytometry using Expi293F cells transiently expressing FAPα from different animal species. IgG1-b12 was included as negative control.
(§2) Expi293F cells expressing recombinant FAPα from various species (human, cynomolgus monkey, dog, pig, rat or mouse) were seeded (20,000 cells/well) in 96-Well round bottom plates (Greiner Bio-one, Cat #650101). Antibody dilutions were prepared using FACS buffer, consisting of PBS (Capricorn Scientific, Cat #PBS-10XA, diluted to 1×PBS in distilled water)+1% BSA (Roche, Cat #10735086001)+0.02% Sodium Azide (Bio-World, Cat #41920044-3). Plates were centrifuged, supernatant was removed, and cells were resuspended in 100 μL of antibody dilutions (concentration range 30-0.00017 μg/mL with three-fold serial dilutions using FACS buffer) of BisG1-FAPα-FERL/DR4-FERR, BisG1-FAPα-FEAL/b12-FEAR, IgG1-FAPα-FERL and IgG1-b12 and incubated for 30 min at 4° C. […] After 30 min incubation at 4° C., cells were washed with FACS buffer and resuspended in FACS buffer supplemented with TO-PRO-3 Iodide viability marker (Invitrogen, Cat #T3605, diluted 1:4,000). Antibody binding to viable cells (gMFI of PE on TO-PRO-3 negative cells) was analyzed by flow cytometry on a FACS Celesta and FACS_Diva software (first two experiments) or iQue® 3 and FlowJo software (last experiment). gMFI was determined and visualized using GraphPad Prism. Binding curves were analyzed using nonlinear regression analysis. The concentration (pg/mL) at which 50% of the maximal effect was observed (EC₅₀) was derived from the fitted curves.

[3] = target: T2, human FAPα (Fibroblast activation …); experiment: flow cytometry, Expi293F cells expressing human FAPα, n = 2
Experimental: as §1, §2

[4] = target: T3, mouse FAPα on Expi293F cells (mouse (Mus musculus), UniProt P97321 1-761); experiment: flow cytometry on Expi293F cells transiently expressing mouse FAPα, gMFI PE
T3 sequence: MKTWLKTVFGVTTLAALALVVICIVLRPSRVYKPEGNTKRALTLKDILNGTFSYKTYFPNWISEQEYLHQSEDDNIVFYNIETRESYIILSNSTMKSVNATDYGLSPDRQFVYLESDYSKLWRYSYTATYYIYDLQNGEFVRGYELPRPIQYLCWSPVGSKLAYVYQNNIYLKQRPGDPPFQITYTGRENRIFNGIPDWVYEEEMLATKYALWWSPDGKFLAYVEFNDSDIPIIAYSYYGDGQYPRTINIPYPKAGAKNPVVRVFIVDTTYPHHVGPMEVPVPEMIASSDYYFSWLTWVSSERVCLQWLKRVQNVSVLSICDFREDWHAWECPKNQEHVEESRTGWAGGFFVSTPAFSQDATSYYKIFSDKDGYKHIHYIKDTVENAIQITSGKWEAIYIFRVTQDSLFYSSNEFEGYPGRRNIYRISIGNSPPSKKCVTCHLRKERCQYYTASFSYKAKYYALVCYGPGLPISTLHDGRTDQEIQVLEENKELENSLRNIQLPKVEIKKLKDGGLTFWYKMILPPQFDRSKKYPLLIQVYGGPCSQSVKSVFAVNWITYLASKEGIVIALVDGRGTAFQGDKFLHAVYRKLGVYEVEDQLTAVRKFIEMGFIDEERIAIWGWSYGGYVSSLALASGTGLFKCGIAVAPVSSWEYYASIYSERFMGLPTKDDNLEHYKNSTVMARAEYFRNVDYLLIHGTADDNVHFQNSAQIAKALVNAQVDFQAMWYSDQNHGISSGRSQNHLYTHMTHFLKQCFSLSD
Experimental: as §1, §2

- EC50 [2]: 0.18 µg/mL
- EC50 [3]: 0.32 µg/mL
- binding result [4]: binds
B1: BisG1-FAPα-FERL/DR4-FERR (bispecific antibody, human IgG1, kappa, lambda)
heavy 1: EVQLLESGGGLVQPGGSPRLSCEASGFTFSSYALSWVRQAPGKGLEWVSAISGSGGGRYYADSVKGRFTISRDNSKNTLFLQMNSLRAEDTAVYYCAKEGYSSSGTYWDHWGQGTLVTVSSASTKGPSVFPLAPSSKSTSGGTAALGCLVKDYFPEPVTVSWNSGALTSGVHTFPAVLQSSGLYSLSSVVTVPSSSLGTQTYICNVNHKPSNTKVDKRVEPKSCDKTHTCPPCPAPEFERGPSVFLFPPKPKDTLMISRTPEVTCVVVDVSHEDPEVKFNWYVDGVEVHNAKTKPREEQYNSTYRVVSVLTVLHQDWLNGKEYKCKVSNKALPAPIEKTISKAKGQPREPQVYTLPPSREEMTKNQVSLTCLVKGFYPSDIAVEWESNGQPENNYKTTPPVLDSDGSFLLYSKLTVDKSRWQQGNVFSCSVMHEALHNHYTQKSLSLSPG
light 1: AIQMTQSPSSVSASVGDRVTITCRASQGVSSWLAWYQQKPGRAPKLLIYVASTLQSGVPSRFSGSGSGTDFTLTINSLQPEDFATYYCQQANSFPPTFGQGTRLEMKRTVAAPSVFIFPPSDEQLKSGTASVVCLLNNFYPREAKVQWKVDNALQSGNSQESVTEQDSKDSTYSLSSTLTLSKADYEKHKVYACEVTHQGLSSPVTKSFNRGEC
heavy 2: QVQLQESGPGLVKPSGTLSLTCAVSGGSISSYSWWSWIRQPPGKGLEWIGELYHSGSTNYNPSLKSRVTISVDKSKNQFSLKLRSVTAADTAVYYCVRGVATIDYWGQGTLVTVSSASTKGPSVFPLAPSSKSTSGGTAALGCLVKDYFPEPVTVSWNSGALTSGVHTFPAVLQSSGLYSLSSVVTVPSSSLGTQTYICNVNHKPSNTKVDKRVEPKSCDKTHTCPPCPAPEFERGPSVFLFPPKPKDTLMISRTPEVTCVVVDVSHEDPEVKFNWYVDGVEVHNAKTKPREEQYNSTYRVVSVLTVLHQDWLNGKEYKCKVSNKALPAPIEKTISKAKGQPREPQVYTLPPSREEMTKNQVSLTCLVKGFYPSDIAVEWESNGQPENNYKTTPPVLDSDGSFFLYSRLTVDKSRWQQGNVFSCSVMHEALHNHYTQKSLSLSPG
light 2: QSALTQPPSASGSPGQSVTISCTGTSSDVGGYNFVSWYQQDPGKAPKLLIYEVTKRPSGVPDRFSGSKSGNTASLTVSGLQAEDEADYYCSSYAGSNNVMFGGGTKLTVLGQPKAAPSVTLFPPSSEELQANKATLVCLISDFYPGAVTVAWKADSSPVKAGVETTTPSKQSNNKYAASSYLSLTPEQWKSHRSYSCQVTHEGSTVEKTVAPTECS
notes: Human IgG1 bispecific made by controlled Fab-arm exchange of IgG1-FAPα-FERL and IgG1-DR4-FERR; monovalent for FAPα and for DR4; also called GEN1057
- EC50 [1]: 1.7 µg/mL
